One substance from PMC4014986 can be followed below.

Like-named read-outs stand apart in the source and are kept apart here.

For experiment [1], the target named is Actin filaments (F-actin) from rabbit skeletal muscle (rabbit) (UniProt P68135).
The target is the same in experiment [2]. This is another data set of the same source.
For experiment [3] the target is unchanged. The source holds these as a separate data set.

Sequence of Myosin 5c subfragment 1 (Myo5c-S1, 1-785 amino acids) (Q9NQX4 1-785): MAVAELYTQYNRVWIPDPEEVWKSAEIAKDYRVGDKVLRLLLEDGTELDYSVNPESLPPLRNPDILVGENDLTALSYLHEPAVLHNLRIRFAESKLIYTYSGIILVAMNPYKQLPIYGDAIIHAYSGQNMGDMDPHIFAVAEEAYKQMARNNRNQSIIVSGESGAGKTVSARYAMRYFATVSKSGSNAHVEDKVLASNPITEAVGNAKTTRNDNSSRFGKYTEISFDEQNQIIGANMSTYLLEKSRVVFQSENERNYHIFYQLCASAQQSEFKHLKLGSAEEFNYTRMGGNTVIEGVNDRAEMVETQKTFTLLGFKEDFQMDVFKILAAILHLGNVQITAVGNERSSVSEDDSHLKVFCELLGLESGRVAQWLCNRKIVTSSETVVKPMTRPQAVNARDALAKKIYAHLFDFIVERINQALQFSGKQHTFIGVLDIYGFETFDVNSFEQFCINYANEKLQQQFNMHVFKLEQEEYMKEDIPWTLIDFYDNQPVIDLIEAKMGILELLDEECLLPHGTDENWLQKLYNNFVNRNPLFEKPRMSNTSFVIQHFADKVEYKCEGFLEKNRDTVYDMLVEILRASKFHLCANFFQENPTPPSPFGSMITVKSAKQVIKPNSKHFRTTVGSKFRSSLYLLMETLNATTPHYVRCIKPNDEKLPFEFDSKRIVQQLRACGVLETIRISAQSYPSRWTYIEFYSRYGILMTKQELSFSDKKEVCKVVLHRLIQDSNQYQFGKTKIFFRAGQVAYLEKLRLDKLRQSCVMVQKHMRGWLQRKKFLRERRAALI

For “Myosin 5c subfragment 1 (Myo5c-S1, 1-785 amino acids) (from UniProt Q9NQX4 1-785) (domain or fragment)”, the figures for the K (ATPase) of the steady-state actin-activated ATPase (NADH-coupled assay) in experiment [1] and in experiment [2] were 26 µM and 35 µM, respectively. This substance also returned a half-maximum value (Kact) of the phosphate dissociation rate against F-actin concentration (MDCC-PBP, double-mixing stopped flow) in experiment [3] of 14.6 µM.
